Target: T1, recombinant human full length Fzd7 (human, UniProt O75084 33-574)
T1 construct: Frizzled 7 (Fzd7), human, recombinant full length; also called full-length recombinant Fzd7; source: recombinant
Assay: co-IP; recombinant human full length Fzd7 mixed in lysis buffer at 1:1 ratio with recombinant human full-length ILK, incubated overnight at 4 °C with anti-Fzd7 Ab; Western blot for ILK and Fzd7
Settings: both partners purified

B1: recombinant human full-length ILK (enzyme, UniProt Q13418 1-452, looked up)
chain: MDDIFTQCREGNAVAVRLWLDNTENDLNQGDDHGFSPLHWACREGRSAVVEMLIMRGARINVMNRGDDTPLHLAASHGHRDIVQKLLQYKADINAVNEHGNVPLHYACFWGQDQVAEDLVANGALVSICNKYGEMPVDKAKAPLRELLRERAEKMGQNLNRIPYKDTFWKGTTRTRPRNGTLNKHSGIDFKQLNFLTKLNENHSGELWKGRWQGNDIVVKVLKVRDWSTRKSRDFNEECPRLRIFSHPNVLPVLGACQSPPAPHPTLITHWMPYGSLYNVLHEGTNFVVDQSQAVKFALDMARGMAFLHTLEPLIPRHALNSRSVMIDEDMTARISMADVKFSFQCPGRMYAPAWVAPEALQKKPEDTNRRSADMWSFAVLLWELVTREVPFADLSNMEIGMKVALEGLRPTIPPGISPHVCKLMKICMNEDPAKRPKFDMIVPILEKMQDK
notes: Integrin-linked kinase (ILK), human, recombinant full length; also called full-length recombinant ILK; source: recombinant
  binding result: binds

Reference: paper PMC11143768, “Integrin-linked kinase-frizzled 7 interaction maintains cancer stem cells to drive platinum resistance in ovarian cancer” (Journal of Experimental & Clinical Cancer Research : CR, 2024)
